Data reported in the supplement of paper PMC9112550, “Optimization of the antimicrobial peptide Bac7 by deep mutational scanning” (BMC Biology, 2022).

Test system: Escherichia coli TOP10
Assay: shrunken log2 fold change of peptide-encoding DNA abundance (4.5 h post-induction vs induction); higher = less antimicrobial activity (less host growth inhibition)
Conditions: time post-induction: 4.5 h; library: site-saturation at positions 5, 18, 19, 20
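Note: peptides expressed intracellularly from a pBAD plasmid library in pooled LB shake-flask culture, induced with 0.3% L-arabinose, DNA abundance read by NGS, three biological replicates, DESeq2 with apeglm shrinkage.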

Row | Sequence | shrunken log2 fold change
1 | RRIRERPPRLPRPRPRPQIMPRP | -0.398
2 | RRIRTRPPRLPRPRPRPSTKPRP | -0.145
3 | RRIRLRPPRLPRPRPRPPTAPRP | 0.228
4 | RRIRMRPPRLPRPRPRPVYSPRP | -0.248
5 | RRIRHRPPRLPRPRPRPKYAPRP | -0.0413
6 | RRIRLRPPRLPRPRPRPQEYPRP | -0.846
7 | RRIRHRPPRLPRPRPRPYMHPRP | -0.448
8 | RRIRIRPPRLPRPRPRPEVIPRP | -0.0583
9 | RRIRLRPPRLPRPRPRPMKRPRP | -0.0358
10 | RRIRQRPPRLPRPRPRPGHSPRP | -0.00616
11 | RRIRHRPPRLPRPRPRPRNEPRP | -0.588
12 | RRIRPRPPRLPRPRPRPSIFPRP | -0.284
13 | RRIRTRPPRLPRPRPRPIDMPRP | 0.00748
14 | RRIRVRPPRLPRPRPRPAYSPRP | -0.167
15 | RRIRCRPPRLPRPRPRPATIPRP | -0.55
16 | RRIRERPPRLPRPRPRPTEIPRP | 0.135
17 | RRIRRRPPRLPRPRPRPSENPRP | -0.0437
18 | RRIRIRPPRLPRPRPRPCTIPRP | -0.25
19 | RRIRLRPPRLPRPRPRPWMIPRP | -0.0928
20 | RRIRMRPPRLPRPRPRPVSQPRP | 0.712
21 | RRIRWRPPRLPRPRPRPVKHPRP | 0.0838
22 | RRIRSRPPRLPRPRPRPLHNPRP | -0.198
23 | RRIRKRPPRLPRPRPRPEDLPRP | 1.8
24 | RRIRNRPPRLPRPRPRPRAIPRP | 0.064
25 | RRIRDRPPRLPRPRPRPNIKPRP | -0.384

Row | Sequence | shrunken log2 fold change
26 | RRIRYRPPRLPRPRPRPWWMPRP | -0.452
27 | RRIRVRPPRLPRPRPRPCTHPRP | 0.0145
28 | RRIRARPPRLPRPRPRPEWLPRP | 1.25
29 | RRIRFRPPRLPRPRPRPHAFPRP | -0.411
30 | RRIRDRPPRLPRPRPRPCCVPRP | -0.158
31 | RRIRKRPPRLPRPRPRPMALPRP | -0.00663
32 | RRIRDRPPRLPRPRPRPVPHPRP | 0.012
33 | RRIRNRPPRLPRPRPRPGEHPRP | 0.00902
34 | RRIRSRPPRLPRPRPRPFILPRP | -0.695
35 | RRIRWRPPRLPRPRPRPAYGPRP | -0.213
36 | RRIRHRPPRLPRPRPRPQYIPRP | -0.621
37 | RRIRERPPRLPRPRPRPSPYPRP | -0.277
38 | RRIRVRPPRLPRPRPRPLIYPRP | -0.632
39 | RRIRSRPPRLPRPRPRPEWHPRP | 0.0472
40 | RRIRWRPPRLPRPRPRPDWGPRP | -0.0819
41 | RRIRKRPPRLPRPRPRPTRYPRP | 0.438
42 | RRIRWRPPRLPRPRPRPQREPRP | 0.0297
43 | RRIRFRPPRLPRPRPRPVWMPRP | -0.119
44 | RRIRHRPPRLPRPRPRPFFMPRP | -0.564
45 | RRIRIRPPRLPRPRPRPDPPPRP | 0.075
46 | RRIRCRPPRLPRPRPRPNVEPRP | -0.216
47 | RRIRFRPPRLPRPRPRPNSLPRP | -0.189
48 | RRIRYRPPRLPRPRPRPYIIPRP | -0.241
49 | RRIRDRPPRLPRPRPRPLFFPRP | 0.648
50 | RRIRIRPPRLPRPRPRPGWPPRP | 0.353

Row | Sequence | shrunken log2 fold change
51 | RRIRFRPPRLPRPRPRPVQKPRP | 0.00252
52 | RRIRLRPPRLPRPRPRPMAMPRP | 0.0591
53 | RRIRKRPPRLPRPRPRPKCMPRP | 0.15
54 | RRIRARPPRLPRPRPRPKHSPRP | 0.0875
55 | RRIRYRPPRLPRPRPRPGEWPRP | 0.0486
56 | RRIRVRPPRLPRPRPRPMMRPRP | 0.837
57 | RRIRIRPPRLPRPRPRPEFMPRP | -0.25
58 | RRIRYRPPRLPRPRPRPSHSPRP | -0.0971
59 | RRIRHRPPRLPRPRPRPKLNPRP | -0.248
60 | RRIRYRPPRLPRPRPRPWELPRP | 0.0358
61 | RRIRYRPPRLPRPRPRPRYLPRP | -0.176
62 | RRIRHRPPRLPRPRPRPCDFPRP | -0.0501
63 | RRIRDRPPRLPRPRPRPGTFPRP | 0.00435
64 | RRIRKRPPRLPRPRPRPWWDPRP | -0.0115
65 | RRIRLRPPRLPRPRPRPKHFPRP | -0.494
66 | RRIRRRPPRLPRPRPRPVTDPRP | 0.0723
67 | RRIRNRPPRLPRPRPRPGVWPRP | 0.474
68 | RRIRGRPPRLPRPRPRPFRKPRP | -0.0984
69 | RRIRVRPPRLPRPRPRPWSSPRP | -1.19
70 | RRIRFRPPRLPRPRPRPPIKPRP | 0.0125
71 | RRIRSRPPRLPRPRPRPIVIPRP | -0.872
72 | RRIRFRPPRLPRPRPRPRVWPRP | 0.963
73 | RRIRTRPPRLPRPRPRPNTCPRP | -0.395
74 | RRIRWRPPRLPRPRPRPKWWPRP | 0.266
75 | RRIRNRPPRLPRPRPRPSCVPRP | -0.599

Row | Sequence | shrunken log2 fold change
76 | RRIRRRPPRLPRPRPRPSNFPRP | -0.177
77 | RRIRGRPPRLPRPRPRPSHWPRP | 0.157
78 | RRIRFRPPRLPRPRPRPAVGPRP | 0.591
79 | RRIRARPPRLPRPRPRPDAGPRP | 0.94
80 | RRIRKRPPRLPRPRPRPPFMPRP | 0.517
81 | RRIRNRPPRLPRPRPRPWTWPRP | -0.0415
82 | RRIRHRPPRLPRPRPRPGGTPRP | 0.0131
83 | RRIRSRPPRLPRPRPRPNLPPRP | 0.247
84 | RRIRARPPRLPRPRPRPGEAPRP | 0.942
85 | RRIRTRPPRLPRPRPRPLQPPRP | 0.161
86 | RRIRQRPPRLPRPRPRPIKMPRP | -0.39
87 | RRIRRRPPRLPRPRPRPMAEPRP | -0.0431
88 | RRIRSRPPRLPRPRPRPYNMPRP | -0.817
89 | RRIRLRPPRLPRPRPRPNQYPRP | -0.126
90 | RRIRQRPPRLPRPRPRPINGPRP | -0.000925
91 | RRIRQRPPRLPRPRPRPRQAPRP | 0.0647
92 | RRIRYRPPRLPRPRPRPATQPRP | -0.163
93 | RRIRPRPPRLPRPRPRPCGPPRP | 0.189
94 | RRIRHRPPRLPRPRPRPDCIPRP | -0.0444
95 | RRIRRRPPRLPRPRPRPDQIPRP | -0.122
96 | RRIRGRPPRLPRPRPRPESRPRP | 0.831
97 | RRIRCRPPRLPRPRPRPHRTPRP | -0.209
98 | RRIRDRPPRLPRPRPRPVFYPRP | -0.301
99 | RRIRKRPPRLPRPRPRPTFFPRP | 0.368
100 | RRIRERPPRLPRPRPRPGRCPRP | 0.0675

Row | Sequence | shrunken log2 fold change
101 | RRIRWRPPRLPRPRPRPYCVPRP | -0.521
102 | RRIRLRPPRLPRPRPRPDTIPRP | -0.21
103 | RRIRYRPPRLPRPRPRPPHHPRP | -0.668
104 | RRIRPRPPRLPRPRPRPWCRPRP | 0.0933
105 | RRIRNRPPRLPRPRPRPQYQPRP | -0.317
106 | RRIRGRPPRLPRPRPRPALCPRP | 0.925
107 | RRIRSRPPRLPRPRPRPLAEPRP | 0.502
108 | RRIRNRPPRLPRPRPRPTAVPRP | 0.495
109 | RRIRRRPPRLPRPRPRPPVSPRP | 0.332
110 | RRIRCRPPRLPRPRPRPTHCPRP | 0.363
111 | RRIRVRPPRLPRPRPRPKAMPRP | 0.0194
112 | RRIRCRPPRLPRPRPRPPAYPRP | 0.176
113 | RRIRVRPPRLPRPRPRPASWPRP | 0.294
114 | RRIRPRPPRLPRPRPRPQIFPRP | -0.137
115 | RRIRVRPPRLPRPRPRPRHCPRP | -0.383
116 | RRIRDRPPRLPRPRPRPEMAPRP | 0.0683
117 | RRIRYRPPRLPRPRPRPFVTPRP | -0.156
118 | RRIRRRPPRLPRPRPRPGVGPRP | 0.59
119 | RRIRRRPPRLPRPRPRPQVDPRP | 0.237
120 | RRIRYRPPRLPRPRPRPRSRPRP | 0.07
121 | RRIRMRPPRLPRPRPRPLSRPRP | 0.349
122 | RRIRFRPPRLPRPRPRPSRLPRP | 0.014
123 | RRIRTRPPRLPRPRPRPSRNPRP | -0.0832
124 | RRIRIRPPRLPRPRPRPFAVPRP | 0.0425
125 | RRIRNRPPRLPRPRPRPRKSPRP | 0.132
